From the DeepSol protein solubility set come the findings set out here.

A short description of the series: soluble on expression in E. coli; label from the status in PepcDB or PDB records.
Regarding “MSLRYFVFATFKVHKDATNSYFSNGDVVVVNRNRTPKYKDFIVYKVGKIFYISRVIGEPNQKVRVMDDILYLNDVFKDEPYIEKMKNAYSEKKDGQMPFTSDFSVETLTRNKESRVPKGSYLVLNDNRQNKNDSRKFGLIKEKDIRGVITFKVYPLSEFGFTASEGHHHHHH”, the “soluble on expression in E. coli” value is given as “soluble”.

Turning to “MTATNKQVILKDYVSGFPTESDFDFTTTTVELRVPEGTNSVLVKNLYLSCDPYMRIRMGKPDPSTAALAQAYTPGQPIQGYGVSRIIESGHPDYKKGDLLWGIVAWEEYSVITPMTHAHFKIQHTDVPLSYYTGLLGMPGMTAYAGFYEVCSPKEGETVYVSAASGAVGQLVGQLAKMMGCYVVGSAGSKEKVDLLKTKFGFDDAFNYKEESDLTAALKRCFPNGIDIYFENVGGKMLDAVLVNMNMHGRIAVCGMISQYNLENQEGVHNLSNIIYKRIRIQGFVVSDFYDKYSKFLEFVLPHIREGKITYVEDVADGLEKAPEALVGLFHGKNVGKQVVVVARE”, the “soluble on expression in E. coli” value is reported as “soluble”. Consider “MKPLKEYLLIPTQMRVFETQTQAIETSLSVNAQTSESSEAFTVKKDPHEIKVTGKKSGESELVYDLAGFPIKKTKVHVLPDLKVIPGGQSIGVKLHSVGVLVGFHQINTSEGKKSPGETAGIEAGDIIIEMNGQKIEKMNDVAPFIQKAGKTGESLDLLIKRDKQKIKTKLIPEKDEGEGKYRIGLYIRDSAAGIGTMTFYEPKTKKYGALGHVISDMDTKKPIVVENGEIVKSTVTSIEKGTGGNPGEKLARFSSERKTIGDINRNSPFGIFGTLHQPIQNNISDQALPVAFSTEVKKGPAEILTVIDDDKVEKFDIEIVSTTPQKFPATKGMVLKITDPRLLKETGGIVQGMSGSPIIQNGKVIGAVTHVFVNDPTSGYGVHIEWMLSEAGIDIYGKEKASLEHHHHHH”, for which the “soluble on expression in E. coli” value is reported as “not soluble”. Turning to “DNGLHYSVGFNLSDTRAEITKYDNPTKSLSSPYYEGQIVGDIWGYESSLFQSADEIASAPDQSKLDGGISKVPGDIRFMDIDGNGVVDYGENTVDKPGDMKIIGNNKARYRYGFNISADWKGFDLGIFFQGVGKRDLMLPYTFKWQYGSMWQVSTAVGNDYWREDNAGGWLPVARFNGSQALGQNQTRYLLDASYLRLKSLSFGYTLPVSLTKQWGIQKCRVYFTGENLLTFKHTPEGFDPELDDPYKYPQQKSLALGLNVVF”, the “soluble on expression in E. coli” value is “not soluble”. With “MGSDKIHHHHHHAACQGKPLPNTAMHSDAPTEWSFNFFTPKALPAVVTFAAILDVDGNDYRFNTLNSTPDLPGVIGEWNDKDRAPVGYWNHVKRPPRHIIFCWDSIIDKKVYETHLTIPKSVLEQMLMPSKYKDYRGRIAWYNRMQIGLAPEGKVAVWLQGSGSESNYRVTPSVLKTVSGNKLDICKDITRSDFSYGYDKDIIDFIKGKHYPYGNW”, the “soluble on expression in E. coli” value is given as “not soluble”. Regarding “MKVLVPVKRLIDYNVKARVKSDGSGVDLANVKMSMNPFDEIAVEEAIRLKEKGQAEEIIAVSIGVKQAAETLRTALAMGADRAILVVAADDVQQDIEPLAVAKILAAVARAEGTELIIAGKQAIDNDMNATGQMLAAILGWAQATFASKVEIEGAKAKVTREVDGGLQTIAVSLPAVVTADLRLNEPRYASLPNIMKAKKKPLDEKTAADYGVDVAPRLEVVSVREPEGRKAGIKVGSVDELVGKLKEAGVI”, the “soluble on expression in E. coli” value is listed as “soluble”. Consider “MSQVFKDFDLSSVWKTNSWADENYKEAPFTPEILAAVESELGYKLPQSFIELMAVQNGGIFVKNCFPTTQRNSWAENHVQICEVSGIGFEKEGSLCGAMGQKLWLEEWEYPPIGVYFANDPSGGHAMFALDYRACGKDGEPKVVFVEQESDFEIVELAPDFETFIRSLRHEDEFIDEEI”, for which the “soluble on expression in E. coli” value is given as “not soluble”. Consider “GSSGARCYVDGSEEIGSDFKIKCEPKEGSLPLQYEWQKLSDSQKMPTSWLAEMTSSVISVKNASSEYSGTYSCTVRNRVGSDQCLLRLNVVPPSNK”, for which the “soluble on expression in E. coli” value was “soluble”. Then “MADPDSYRSSITSRPAFNRTVTSSTQNYGTPASGNRVLKIVTETHTSSVASGLSPYGQGAASTIRDDREREKKEITELNDRLASYIGKVRFLAAQNRKLEADLNVLQSRFGKSTGSVKIMYEMEITTATNVVKETGKDHEEAEKEIGKIKDQLDELRKKFEEAQKGRAEDRLKIDELLVTLSNLEAEINLLKRRIALLEEEVARLKKENFRLTSELQRVRSELDQETLLRIDNQNKVTTILEEIDFMKRGFETELKDLQAQAARDTTSENREYFKNELMNSIRDIRAEYDRFMAGNRNDLESWSQIRVQEINTQTNRQNAEINHKRDEVKRLHSQVSELKSKHAELAARNGLLEKQLEDLNYQLEDDQRSYEAALNDKDAQVRKLREECQALLVELQMLLDTKQTLDGELKVYRRMLEGNSEENGLRQLVEKVVRTSAINEEVDTETMRVVKGEHSSRTSYQRSAKGNVSIKEVSPEGKFVILENTHRDKEEPLGDWKLKRKIDGKREIVFTFPSDYILHPVQTVKIFARGNGVANPPEVLVFEGDDTFGAGANVQTILYNNSGEERATHMQRQSQQTTTS”, with “not soluble”. For the sequence “MDWIQCNHCGIKPNQTKLYLTACGHVFCQNCTKAAFNSQCYLCKKPLKVDEINKNLRPDLMELFKDPRQLASDLVNELKQVVAFQAKQREIYVKCKNAEAKKDTERFAEARSKHVEKTQEIEKRKKAFLEDNVKLKNAKEEKNQLMARLKELREQPSQNLSVNKRRSNTRTEPPFSKISRTGPPSVMRKASHEFSLNLRDQSTSKILTSTPLSNIDYSRRDHRNRLFGAGLEHPSPILRQ”, the “soluble on expression in E. coli” value is reported as “soluble”. Under “MFQGCYGGTQKHEPDLHIVLERAWQQGLQKVIVTAGCLKDVDEALELASKDERIYTTVGTHPTRCEEFVPDPEGYYDQLRSRIKANRTKVRAVGECGLDYDRLHFCAQETQRLYFEKQLDLAAEFKLPLFLHMRNAAEDFMGILERNRNKIEECGGGVVHSFTGTLEEAQRILAFGGLYIGFNGCSLKTDENAEVVRKLPNDRIMLETDCPWCGIRPSHAGHKHVTTKFPTVKKKEKWTAESLIDGRCEPCQISQVLESIAGIKQEPKEQLAALYYQNTLDLFFGTGESKELEHHHHHH” stands “not soluble”. As for “GAQNEKNMYSYKKIGNKYIVSINNHTEIVKALNAFCKEKGILSGSINGIGAIGELTLRFFNPKTKAYDDKTFREQMEISNLTGNISSMNEQVYLHLHITVGRSDYSALAGHLLSAIQNGAGEFVVEDYSERISRTYNPDLGLNIYDFER”, the “soluble on expression in E. coli” value is “soluble”. Then “MGSDKIHHHHHHLISTANITMQFGPEPLFENISAKFGNGNRYGLIGANGCGKSTFMKILSGALAPTSGNVSITPGLKVGTLSQDQFAFEQYTVIDAVIMGDVQLWKVKQERDAIYAKADMTEEDGMRVGDLESEFAEMDGYSAESRAGEILIEAGIEESFHYGPMSQVAPGWKLRVLLAQALFANPDILLLDEPTNNLDIHTISWLETELNKRKCTMIIISHDRHFLNAVCTHMADIDYGELRIYPGNYEYFLAQSSLLREQLLAGNAKKSAEIEELQDFVNRFGANASKAKQASSRAKRMDKIKLDEVKSSSRITPSIRFAAGKKMHRQALVLENLGHGFDGELLFQGGDLILEAGAKLAIIGENGVGKTTLLRCLVNELIHNEGTIKWSENASIGYCPQDSTSDFDNDLTIMEWMDQWRQPKHNDLMVRAMLGRLLFTEDDANKKAKNCSGGEKNRLIFGKLMMQDINVIIMDEPTNHMDMEAIEALNNALKDFEGTLIFVSHDREFVSSLATRIIDIKDKKLINFQGTFDEYLSSQADIMARQHA”, with “not soluble”; and “GPGSMNFTQQLWSVKEWGRVMATRSEYVQIVHDATNDEKWGPTGPQMDAVCNAYPRGGPEILNELRTRLNNRDKSWRPCYKSLLVIDYLARNVDDRYLPEISALVPIIRTISTSFYYTNPKGVDHGVSVRERAKKVADLLSDGLQLREERMVAAQIKAKLSHNASDGGGPNSDAPYSGAGSYGGSRDCDRYRSYVKGSRQAYDSYRSSPPPSAVLSRPRTKEEQERCDMEMALRLQRDEERRSGVSAEQLEEMYAT”, with “soluble”. On to “MNIQSIETYQVRLPLKTPFVTSYGRLEEKAFDLFVITDEQGNQGFGELVAFEQPDYVQETLVTERFIIQQHLIPLLLTEAIEQPQEVSTIFEEVKGHWMGKAALETAIWDLYAKRQQKSLTEFFGPTRRKIPVGISLGIQEDLPQLLKQVQLAVEKGYQRVKLKIRPGYDVEPVALIRQHFPNLPLMVDANSAYTLADLPQLQRLDHYQLAMIEQPFAADDFLDHAQLQRELKTRICLDENIRSLKDCQVALALGSCRSINLKIPRVGGIHEALKIAAFCQENDLLVWLGGMFESGVGRALNLQFASQPTFSFPGDISATERYFYEDIITEPFILEQGTMTVPQGLGIGVTLSQTNLLKYSQYQKIM”, for which the “soluble on expression in E. coli” value was “not soluble”.

With “MGSDKIHHHHHHMSFPDVTNYYLFAQVMACGSISAASRELGLPKSTISRKMALLEQEQGTRLFHRSRSGLKLTDVGREFLVHCERLVSAAESAQQVTQRLLDKPRGKVEISAPYALSQSLLVQVLPEFMSLYPEVEIQLVVTNRPVNLIEEGIDIALRVRKNIEDSSLIARPISQAPQTLYIAPDLINQNSITEPEDLLTFEHLSMHYTNGRYGYELIHSSGLQKNIRIKPRLITDDMIVLREAAIKKLGIVALPNYLCNDAVNSGELVPVLTDWHLPIGIMHITYSHRRGILPAVRVLIDFLAEKLPHLAQQQF”, the “soluble on expression in E. coli” value was “not soluble”. Under “MTEYNIGAKIKKLRLAKKLTLQAVARETGFSPALISQIENNNVSPPIATLSKIAKFFDVKISLFFSEDEEEYRYEVVRRGERKVIPRVISRAGTSQGYSYESLSFRKQNKKMEPFLLTVTEKAAEENTYNHDGEEFLFVMKGTAELLLEDERVILEEGDCVYFDSSLKHRLLSRDGSEVQVLAVVTR” stands “not soluble”; under “MDVSEGGVTVSVPTASGGGEGAADDVFFNATQELNRDLTVATLAAFREREPRAASYLDAMTASGIRGVRAANAGWDVTMADVDADAVELATSNLARNGLDGEVVARDANSLLHDHDRVLDVVDIDPFGSPMPFADAAFANARNLVCVTATDTAPLCGAHFESGVRKYSATPRNTNYHAEMGLRILLGALARTAARYDVGVTPILSHVSDHYVRTYLELDHRATDANAAVEQVGHVYHCQQCLSRDHEYGLVAAPRAECPRCGGHQVLTAGPLWLGPAHEEAFAASVREQLTREMGEASQAFHLLQTIEGELHEPTHYDQHRLYSQWGEPAVGMAEFLDQLRDAGLRASRTHFGGTTFKTDGGLAEVEAAVLLEHHHHHH”, “soluble”; under “MGSDKIHHHHHHMMVEESLQLQNELLNKLVQGGGLKELVDSAAHFVQREVVIANTSNRVLESTFSEGFSQGEFFAVLPLQPPVPGRVQLQAGEKKAEALVVELSHDAKRLGFLFICDPGADEDNRLKVLIHQARNVFVLELQKKAELLENSRNYQDAFLFDLLYGNIEDNADIIARGKLWGWDLSLPHVVTAFELEDYESYSQDHYLVTTLHDIIQSVAQSLDKTVILMEKNEEVVLALPVEARKRRDFKAYLNMIINQVLAQAEERLAPRVIRVGVGRRYEQPSELFRSYQEAKVAVKLSALLKDKGPIVYFRELGVERILYSHDKQELLEFYREILAELEAQDKQKNELIETLENYLVYHCDLKATADALFLHPNSLRYRLKRIEEILDLDLEDFDTRVSLVIAFKIKHLIHSKERL”, “not soluble”. Under “GFTVALIQGDGIGPEIVSKSKRILAKINELYSLPIEYIEVEAGDRALARYGEALPKDSLKIIDKADIILKGPVGESAADVVVKLRQIYDMYANIRPAKSIPGIDTKYGNVDILIVRENTEDLYKGFEHIVSDGVAVGMKIITRFASERIAKVGLNFALRRRKKVTCVHKANVMRITDGLFAEACRSVLKGKVEYSEMYVDAAAANLVRNPQMFDVIVTENVYGDILSDEASQIAGSLGIAPSANIGDKKALFEPVHGAAFDIAGKNIGNPTAFLLSVSMMYERMYELSNDDRYIKASRALENAIYLVYKERKALTPDVGGNATTDDLINEIYNKLG” stands “soluble”.
